Measured values published in paper PMC9440430, “An intrinsically disordered transcription activation domain increases the DNA binding affinity and reduces the specificity of NFκB p50/RelA”.
“And” between values parts separate entries of the source, which are not always exact repeats. Identical values can stand only once.

B1: HIV LTR tandem dsDNA (FA) (dsDNA)
DNA 1: CAAGGGACTTTCCGCTGGGGACTTTCCAGG
DNA 2: CCTGGAAAGTCCCCAGCGGAAAGTCCCTTG
B2: NFKBIA tandem 59 bp (dsDNA)
DNA 1: CTGACTGGCTTGGAAATTCCCCGAGCCTGACCCCGCCCCAGAGAAATCCCCAGCCAGCG
DNA 2: CGCTGGCTGGGGATTTCTCTGGGGCGGGGTCAGGCTCGGGGAATTTCCAAGCCAGTCAG
B3: NFKBIA tandem dsDNA (FA) (dsDNA)
DNA 1: CTTGGAAATTCCCCGAGCCTGACCCCGCCCCAGAGAAATCCCCAG
DNA 2: CTGGGGATTTCTCTGGGGCGGGGTCAGGCTCGGGGAATTTCCAAG
B4: HIV LTR tandem 33 bp (dsDNA)
DNA 1: AAGGGACTTTCCGCTGGGGACTTTCCAGGGAGG
DNA 2: CCTCCCTGGAAAGTCCCCAGCGGAAAGTCCCTT

What was measured:
[1] = target: T1, p50/RelA-FL: p50 subunit (39-350);RelA-RHD (no TAD) (murine;murine, UniProt P25799;Q04207 39-350;19-321, |); experiment: fluorescence anisotropy; SEC buffer 25 mM Tris pH 7.5, 150 mM NaCl, 0.5 mM EDTA, 1 mM DTT (FA buffer not stated explicitly; 5 nM DNA, RT incubation, read at 25 C); EMSA: SEC buffer 1:1; conditions: protein: recombinant;recombinant, tags: N-terminal His6;none, copies: 1;1
[2] = target: T2, p50/RelA-FL: p50 subunit (39-350);RelA-FL (RHD + TAD) (murine;murine, UniProt P25799;Q04207 39-350;19-549, |); experiment: as above; conditions: protein: recombinant;recombinant, tags: N-terminal His6;none, copies: 1;1
[3] = target: T1, p50/RelA-FL: p50 subunit …; experiment: EMSA; SEC buffer 25 mM Tris pH 7.5, 150 mM NaCl, 0.5 mM EDTA, 1 mM DTT (FA buffer not stated explicitly; 5 nM DNA, RT incubation, read at 25 C); EMSA: SEC buffer 1:1; conditions: protein: recombinant;recombinant; tags: N-terminal His6;none; copies: 1;1
[4] = target: T2, p50/RelA-FL: p50 subunit …; experiment: as above; conditions: protein: recombinant;recombinant; tags: N-terminal His6;none; copies: 1;1
[5] = label: 5' fluorescein (FITC), hairpin
[6] = label: 5' fluorescein on forward or reverse strand

T1 sequence (P25799 39-350, chain 1 of 2): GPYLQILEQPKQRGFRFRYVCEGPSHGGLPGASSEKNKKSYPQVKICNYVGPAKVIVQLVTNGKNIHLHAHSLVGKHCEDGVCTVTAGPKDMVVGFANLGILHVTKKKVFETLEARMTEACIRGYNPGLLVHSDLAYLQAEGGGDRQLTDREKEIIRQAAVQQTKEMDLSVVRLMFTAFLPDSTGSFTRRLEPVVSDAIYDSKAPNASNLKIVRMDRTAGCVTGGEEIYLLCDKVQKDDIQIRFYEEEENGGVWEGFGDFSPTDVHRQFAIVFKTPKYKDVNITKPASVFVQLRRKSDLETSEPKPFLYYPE
T1 sequence (Q04207 19-321, chain 2 of 2): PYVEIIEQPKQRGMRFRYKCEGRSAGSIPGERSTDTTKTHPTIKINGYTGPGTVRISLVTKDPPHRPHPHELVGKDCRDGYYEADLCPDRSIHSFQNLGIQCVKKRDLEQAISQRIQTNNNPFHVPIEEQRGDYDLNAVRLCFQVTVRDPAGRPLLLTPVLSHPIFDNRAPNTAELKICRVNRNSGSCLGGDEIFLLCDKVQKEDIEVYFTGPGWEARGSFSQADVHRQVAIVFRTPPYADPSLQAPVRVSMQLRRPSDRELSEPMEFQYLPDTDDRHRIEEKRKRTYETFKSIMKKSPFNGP
T2 sequence (P25799 39-350, chain 1 of 2): as the sequence (P25799 39-350, chain 1 of 2) above
T2 sequence (Q04207 19-549, chain 2 of 2): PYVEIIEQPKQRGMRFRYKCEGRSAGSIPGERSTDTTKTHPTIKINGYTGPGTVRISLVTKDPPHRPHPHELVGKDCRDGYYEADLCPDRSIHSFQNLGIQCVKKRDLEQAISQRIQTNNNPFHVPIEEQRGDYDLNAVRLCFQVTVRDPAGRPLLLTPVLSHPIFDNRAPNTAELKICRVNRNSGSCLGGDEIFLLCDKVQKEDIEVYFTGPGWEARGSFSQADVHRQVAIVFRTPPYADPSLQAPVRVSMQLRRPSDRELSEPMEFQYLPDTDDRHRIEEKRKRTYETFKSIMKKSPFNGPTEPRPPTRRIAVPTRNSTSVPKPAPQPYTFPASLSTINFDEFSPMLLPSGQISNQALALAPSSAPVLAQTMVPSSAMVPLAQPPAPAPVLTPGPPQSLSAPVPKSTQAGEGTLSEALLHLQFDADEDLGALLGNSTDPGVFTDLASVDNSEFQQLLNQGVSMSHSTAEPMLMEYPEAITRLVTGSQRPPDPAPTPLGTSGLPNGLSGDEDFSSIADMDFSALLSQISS

Binder	Kd [1, 5] [nM]	Kd [2, 5] [nM]	Kd [1, 6]	Kd [2, 6]	binding result [3]	binding result [4]
GGGAAAGTACTCCCCCAGTACTTTCCC (structured_DNA, 5' 5AmMC6 amino linker) [Urokinase (UK) hairpin]	6.3 ± 1.5	2.2 ± 0.6	–	–	–	–
GTAGACGTGCTCCCCCAGCACGTCTAC (structured_DNA, 5' 5AmMC6 amino linker) [Random hairpin]	1500 ± 100	130 ± 40	–	–	–	–
B1	–	–	1.7 ± 0.4 nM	1.3 ± 0.4 nM	–	–
B2	–	–	–	–	binds	binds
B3	–	–	1.7 nM and 10 nM	1.5 nM and 5.1 nM	–	–
B4	–	–	–	–	binds	binds
